Measured values published in article PMC8626469 (2021).

What was measured:
[1] = biological target: Helicobacter pylori FabX R164A (H. pylori); experiment: ITC
Helicobacter pylori FabX = biological target: T1, Helicobacter pylori FabX (H. pylori); experiment: ITC
T1 chain: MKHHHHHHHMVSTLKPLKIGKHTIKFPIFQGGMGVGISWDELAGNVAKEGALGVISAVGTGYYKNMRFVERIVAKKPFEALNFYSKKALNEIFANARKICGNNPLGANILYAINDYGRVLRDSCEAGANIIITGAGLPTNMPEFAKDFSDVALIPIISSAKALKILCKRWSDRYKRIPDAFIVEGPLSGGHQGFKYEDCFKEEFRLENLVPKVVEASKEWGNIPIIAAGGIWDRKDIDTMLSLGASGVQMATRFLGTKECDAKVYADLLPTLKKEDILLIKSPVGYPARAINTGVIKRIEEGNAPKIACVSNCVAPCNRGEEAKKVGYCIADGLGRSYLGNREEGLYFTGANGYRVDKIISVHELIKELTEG

B1: Helicobacter pylori holo-acyl carrier protein (natural protein)
chain: MALFEDIQAVIAEQLNVDAVQVTPEAEFVKDLGADSLDVVELIMALEEKFGVEIPDEQAEKIINVGDVVKYIEDNKLA
modifications: phosphopantetheine group (PPant) on Ser36
[1]
  Kd: > 200000 nM
Helicobacter pylori FabX
  Kd: 1640 nM
